Laboratory results as given in paper PMC10112281.
Where two headings read alike, the source gives them in different places. Each block holds one molecule with its values, some of them ahead of it. Where no end group is shown, it is not given here.

Experiments:
[1] = target: FIP200 CLAW domain (Homo sapiens) (UniProt Q8TDY2); conditions: cited from earlier work
[2] = target: FIP200 CLAW domain (Homo sapiens) (UniProt Q8TDY2); conditions: cited from earlier work; remark: listed apart in the source
[3] = target: T1, FITC-labeled TNIP1 FIR peptide, pS123; assay: fluorescence polarisation
T1 chain: SSGTSSEFEVVTPEE

[4] = target: T2, FITC-labeled TNIP1 FIR peptide, pS122; assay: fluorescence polarisation
T2 chain: SSGTSSEFEVVTPEE

[5] = target: T3, FITC-labeled TNIP1 FIR peptide, unmodified; assay: fluorescence polarisation
T3 chain: SSGTSSEFEVVTPEE

[6] = target: recombinant His6-TEV-FIP200-CLAW domain; assay: fluorescence polarisation

Kd [3]: 3.27 µM
Kd [4]: 9.7 µM
Kd [5]: 46 µM
B1: recombinant His6-TEV-FIP200-CLAW domain (domain or fragment)
chain: SRHSEKIAIRDFQVGDLVLIILDERHDNYVLFTVSPTLYFLHSESLPALDLKPGEGASGASRRPWVLGKVMEKEYCQAKKAQNRFKVPLGTKFYRVKAVSWNKKV
modifications: not checked

IC50 [6]: 70.2 µM
Molecule: SSGTSSEFEVVTPEE (also: phosphoserine pS123, place not mapped) [unlabeled TNIP1 pS123 peptide]

Continued, molecule first:

Molecule: OPTN (from UniProt Q96CV9)
Kd [1]: 306 µM

Molecule: OPTN phosphorylated (from UniProt Q96CV9)
Kd [2]: 11.5 µM
